Where a SMILES comes first, the peptide text is derived from it. [ ]: non-standard residue; d: D form. The star is where a group is joined. DOTA = O=C(O)CN1CCN(CC(=O)O)CCN(CC(=O)*)CCN(CC(=O)O)CC1; 2Nal = N[C@@H](Cc1ccc2ccccc2c1)C(=O)O; PEG6 = NCCOCCOCCOCCOCCOCCOCCC(=O)O
Key:
[1] = Congo Red spectroscopic (UV-Vis) assay for amyloid-like fibrils; type: physicochemical; conditions: 30 min at room temperature
Description: The high tendency of Gd-2Nal2 to self-aggregate in amyloid-like fibrillary nanostructures in solution was confirmed by Congo Red (CR) staining assay. CR is a well-known azoic dye, used as indicator of the occurrence of amyloid like fibrils. […] When incubated with fibrillary aggregates, its spectral profile changes and a shift of the CR band from 490 to 540 nm is expected. In our experiment, depicted in Fig. 3b, CR UV-Vis maximum undergoes a clear shift after incubation with Gd-2Nal2 at 2.5 mg/mL. Instead, any variation or a slight shift can be evidenced for CR incubated with 0.1 and 1.0 mg/mL, respectively.
Congo Red (CR) UV-Vis assay was carried out on aforementioned spectrophotometer as previously described. Briefly, 5, 50 and 125 μL of di-naphthylalanine stock solution (20 mg/mL) were added to a CR solution (12, 5 μM) prepared immediately before to use. The solutions containing peptide conjugate incubated with CR were left at room temperature for 30 min and then their UV-Vis spectra were recorded between 400 and 700 nm. The spectrum of CR alone at the same concentration was also recorded in the this spectral region.

[2] = Self-aggregation by intrinsic naphthyl fluorescence (intensity decrease, excimer peak); type: physicochemical; conditions: water, room temperature, excitation 280 nm
Description: (§1) Self-organization of the peptide conjugates at the atomic level was further characterized also in solution with fluorescence, UV-Vis, ^1HNMR, CD and FTIR spectroscopies. […] From ispection of Fig. 1b, the typical emission spectrum of the 2-naphthyl group with three maxima at 325, 340 and 355 nm, respectively, can be detected.
(§2) The determination of CAC (critical aggregate concentration) values was determined as previously described[6] by the titration of the fluorescent probe ANS (8-anilino-1-naphthalene sulfonic acid ammonium salt)[28], [29] with the peptide conjugates[30].

[3] = Water proton relaxation measurements / NMRD profiles; type: physicochemical; conditions: 298 K
Text: The paramagnetic relaxivity (r1p) of Gd (III) complexes is given by:1 r1p∝1/T1MH=Kf(τR) where K is a constant related to the strength of the dipolar interaction between the protons and the electronic magnetic moment, and τR is the correlation time associated with the reorientation of the Gd-H magnetic vector. This means that slowly moving high molecular weight systems are endowed with higher relaxivity than rapidly reorienting low molecular weight ones. In the case of self assembling Gd-containing systems, the extent of aggregation may be evaluated through the measure of the water proton longitudinal relaxation rate of its aqueous solution. In Fig. 8 are reported the NMRD (Nuclear Magnetic Resonance Dispersion) profiles of Gd-2Nal2 acquired at 21.5 MHz (0.5 T) and 298 K as a function of the complex concentration. […] At concentrations higher than 10–15 mg/mL the relaxivity assumes an almost stable value which corresponds to the system in the completely aggregated form. By analyzing the profile of the relaxivity data as a function of the applied field strength (NMRD - Nuclear Magnetic Relaxation Dispersion) it is possible to obtain an accurate determination of the reorientational correlation time (τR)[16], that is strictly related to the molecular size of the investigated system. NMRD profiles were acquired below (black circles) and above (white ones) the CAC values determined by ANS titration and ^1HNMR. […] Data were analyzed using the Solomon-Bloembergen-Morgan model, [18], considering one water molecule in the inner coordination sphere (q = 1) and fixing the exchange lifetime (τM) to a reliable value ([…]) on the basis of those previously reported for mono-amido DOTA derivatives[19]–[22]. The quantitative analysis of the NMRD profile of the aggregated form was not satisfactory when the simple inner- outer-sphere model was used, so the Lipari-Szabo approach was used for the description of the rotational dynamics. This model allows one to take into account the presence ofa certain degree of internal rotation superimposed on the overall tumbling motion, [24]. These two types ofmotion, a relatively fast local rotation of the coordination cage about the linker to the peptide scaffold superimposed on the global reorientation of the system, are characterized by different correlation times: τR ^l and τR ^g, respectively. The degree of correlation between global and local rotations is given by the parameter S^2, which takes values between 0 (completely independent motions) and 1 (entirely correlated motions).
Measure of R1 (longitudinal water proton relaxation rates) of Gd-2Nal2 were carried out on a Stelar Spinmaster spectrometer (Pavia, Italy) operating at 0.5 T which corresponds to 21.5 MHz Proton Larmor Frequency. R1 (1/T1) values were measured at 298 K by mean of the standard inversion-recovery technique. For the measure of the proton 1/T1 NMRD (Nuclear Magnetic Resonance Dispersion) profiles, a fast field-cycling Stelar relaxometer, operating over a continuum of magnetic field strengths from 0.00024 to 0.47 T (corresponding to 0.01–20 MHz proton Larmor frequencies) was used. The temperature was set at 298 K. The relaxometer is computer controlled and the absolute uncertainty is 1/T1 ± 1%. Additional data points were obtained on a Stelar Spinmaster spectrometer coupled to an electromagnet tunable at different Larmor Frequencies between 21.5 and 70 MHz. Experimental temperature control was obtained with an air-flow heater (Stelar VTC-91) endowed of a copper constantan thermocouple (uncertainty 0.1 °C). A previously reported relaxometric method[39] was used for the determination of the concentrations of the solutions used for the relaxometric characterization. The conventional Solomon-Bloembergen-Morgan theory was used for fitting of experimental data.

[4] = Doxorubicin loading and leakage by fluorescence spectroscopy; type: physicochemical
Text: In order to prepare a potential theranostic agent, we assayed to incorporate cytotoxic doxorubicin (DOX) model drug in the Gd-2Nal2 paramagnetic nanostructures. DOX is an established anticancer agent clinically effective for the treatment of many cancertypes (breast and ovarian cancers). The incorporation and release of DOX into nanostructures was estimated by fluorescence spectroscopy (Figures S7 and S8). The addition of increasing amounts of the peptide conjugate to the DOX solution causes a progressive decrease of the fluorescence intensity of DOX (Figure S7a). […] By plotting the fluorescence intensity in the maximum at 590 nm as function of the Gd-2Nal2 concentration (Figure S7b) we estimated that gDrug/gPeptide is 0.028 (∼60 μg of DOX for ∼2.0 mg of peptide). […]
A DOX solution (1 · 10^−4 M) was placed in the cuvette and titrated with small amount of Gd-2Nal2 peptide conjugate at 50 mg/mL. The fluorescence of each sample was monitored on Jasco Model FP-750 spectroflurophotometer as above described. […] At the end of the titration the DOX filled Gd-2Nal2 aggregates were 10-fold diluted and the DOX fluorescence was monitored up to 72 h. […]
Figure S7: A) Fluorescence spectra of 1·10^-4 M DOX (58 μg/mL) solution alone and after the addition of growing amounts of Gd-2Nal2 peptide conjugate (from 0.25 to 10.0 mg/mL). […]

[5] = Transmission electron microscopy of self-assembled conjugates; type: physicochemical; conditions: 5.0 mg/mL solution dried on grid, phosphotungstic acid stain
Description: Self-assembled peptide conjugate at 5.0 mg/mL, as free base or as metal complex, was initially characterized using TEM. […] The presence of a diffraction pattern both in SAXS and in WAXS is fingerprint of a hierarchical organization of the molecules in fibers from the atomic to the nanoscale.
TEM images were acquired by LaMest (Pozzuoli, Italy) with a FEI TECNAI G12 Spirit-Twin microscope (LaB6 source) endowed of a bottom mounted FEI Eagle-4k CCD camera (Eindhoven, The Netherlands), working at 120 kV.

[6] = water
[7] = Critical aggregation concentration (CAC) by ANS fluorescence titration; type: physicochemical; conditions: ANS 20 μM titrated with conjugate, emission at 470 nm, graphical break-point (Figure S3)
Description: as §1, §2

[8] = water, temperature below 5 °C

SMILES: NC(=O)[C@H](Cc1ccc2ccccc2c1)NC(=O)[C@H](Cc1ccc2ccccc2c1)NC(=O)CCOCCOCCOCCOCCOCCOCCNC(=O)CN1CCN(CC(=O)O)CCN(CC(=O)O)CCN(CC(=O)O)CC1 [Gd-2Nal2, Gd-DOTA-L6-(2Nal)2] ({DOTA-PEG6}-[2Nal]-[2Nal]-NH2)
- shift of Congo Red UV-Vis maximum (490 to 540 nm expected for fibrils) ([1]; conjugate at 1.0 mg/mL): slight shift
- shift of Congo Red UV-Vis maximum (490 to 540 nm expected for fibrils) ([1]; conjugate at 2.5 mg/mL): clear shift
- concentration at which self-aggregation begins (decrease of fluorescence intensity) [2]: ~75 µM
- concentration of appearance of the excimer peak (380-430 nm) / formation of stable aggregates [2]: ~1.0 mg/mL
- concentration at which self-aggregation begins (decrease of fluorescence intensity) ([2]; 0.025-20.0 mg/mL range): ~0.1 mg/mL
- aggregation state from NMRD profile and τR ([3]; 1 mg/mL): monomeric state
- aggregation state from NMRD profile and τR ([3]; 25.0 mg/mL (high concentration)): formation of aggregates
- concentration above which relaxivity assumes an almost stable value (completely aggregated form) ([3]; 21.5 MHz (0.5 T), water): 10 to 15 mg/mL
- concentration at which self-aggregation starts (enhancement in relaxivity) ([3]; 21.5 MHz (0.5 T), water): ca. 1.0 mg/mL
- r1p (longitudinal proton relaxivity) ([3]; complex at 1 mg/mL, aqueous solution): 7.3 mM⁻¹ s⁻¹
- doxorubicin loading, gDrug/gPeptide ([4]; DOX 1·10^−4 M titrated with Gd-2Nal2 (50 mg/mL stock), fluorescence at 590 nm, excitation 480 nm): 0.028
- DOX leakage (drug released) from the peptide aggregate ([4]; DOX filled aggregates 10-fold diluted, fluorescence monitored, after 72 h): ~6%
- supramolecular aggregation / morphology in TEM images [5]: long fibrillary nanostructures
- solubility [6]: ≥ 50 mg/mL
- critical aggregation concentration (CAC) [7]: ~0.86 mg/mL
- concentration at which fast hydrogel formation occurs [8]: 20 mg/mL
